Measurements from paper doi:10.1101/2022.04.06.487297 (bioRxiv, 2022).

These binders were tested against cortactin SH3 domain (UniProt Q60598 488-546) (assay: NMR titration).
cortactin SH3 domain, sequence (Q60598 488-546): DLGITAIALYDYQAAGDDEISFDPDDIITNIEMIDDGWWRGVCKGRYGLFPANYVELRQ

Kd [µM]	Binder
40 ± 5	TAFQEPPPKPSRPKYRPPP [Pyk2-PRR2 peptide]
650 ± 10	EFTGPPQKPPRLGAQS [Pyk2-PRR3 peptide]
> 1000	TAFQEPAPKASQAQYRPPP [Pyk2 super-mutant peptide]
